Consider two molecules from paper PMC4501562, “Vpu Exploits the Cross-Talk between BST2 and the ILT7 Receptor to Suppress Anti-HIV-1 Responses by Plasmacytoid Dendritic Cells” (PLoS Pathogens, 2015).

Usually Kd stands for the concentration at which binding is half-saturated. Lower therefore signals higher affinity. A word on the koff: it is the rate constant with which the complex falls apart. A higher koff goes with a short-lived complex. The kon is a measure of how fast the partners come together.

Experiment [1] addresses ILT7 on the ILT7+ NFAT-GFP reporter mouse cell line (CT550) (human) (UniProt P59901).
Experiment [2] has as its target T1, baculovirus-expressed soluble ILT7 (residues 24 to 435) (human, UniProt P59901 24-435).
T1 construct: immunoglobulin-like transcript 7 (ILT7, LILRA4, CD85g), human, residues 24 to 435, from a synthetic codon-optimized gene; Cloned into the transfer vector pFL and transposed into the EMBacY bacmid; also called bacILT7; LILRA4
The experiment in a line: SPR; Biacore 3000; GST-BST2 covalently immobilised on a CM5 chip by amine coupling (6550 RU); bacILT7 serially diluted and passed over at 10 ul/min; running buffer HBS-PE (10 mM HEPES pH 7.5, 150 mM NaCl, 3 mM EDTA, 0.005% Tween-20); GST-coated reference cell subtracted; 1:1 Langmuir model, local Rmax. As to conditions: both partners purified. For orientation: Surface plasmon resonance follows binding to a sensor surface in real time, without labels.

T1 sequence (P59901 24-435): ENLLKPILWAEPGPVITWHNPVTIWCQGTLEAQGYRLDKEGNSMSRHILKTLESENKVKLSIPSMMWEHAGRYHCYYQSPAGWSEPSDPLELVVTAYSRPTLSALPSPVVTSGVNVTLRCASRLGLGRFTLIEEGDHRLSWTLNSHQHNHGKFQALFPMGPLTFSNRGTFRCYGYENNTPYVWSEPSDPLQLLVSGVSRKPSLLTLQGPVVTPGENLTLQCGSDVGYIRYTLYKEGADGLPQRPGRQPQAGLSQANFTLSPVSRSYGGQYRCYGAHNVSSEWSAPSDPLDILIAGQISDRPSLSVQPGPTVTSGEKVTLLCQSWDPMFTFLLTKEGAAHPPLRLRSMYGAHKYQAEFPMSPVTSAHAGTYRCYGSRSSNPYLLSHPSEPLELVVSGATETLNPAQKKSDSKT
Sequence of ILT7 on the ILT7+ NFAT-GFP reporter mouse cell line (CT550) (human) (P59901 24-499): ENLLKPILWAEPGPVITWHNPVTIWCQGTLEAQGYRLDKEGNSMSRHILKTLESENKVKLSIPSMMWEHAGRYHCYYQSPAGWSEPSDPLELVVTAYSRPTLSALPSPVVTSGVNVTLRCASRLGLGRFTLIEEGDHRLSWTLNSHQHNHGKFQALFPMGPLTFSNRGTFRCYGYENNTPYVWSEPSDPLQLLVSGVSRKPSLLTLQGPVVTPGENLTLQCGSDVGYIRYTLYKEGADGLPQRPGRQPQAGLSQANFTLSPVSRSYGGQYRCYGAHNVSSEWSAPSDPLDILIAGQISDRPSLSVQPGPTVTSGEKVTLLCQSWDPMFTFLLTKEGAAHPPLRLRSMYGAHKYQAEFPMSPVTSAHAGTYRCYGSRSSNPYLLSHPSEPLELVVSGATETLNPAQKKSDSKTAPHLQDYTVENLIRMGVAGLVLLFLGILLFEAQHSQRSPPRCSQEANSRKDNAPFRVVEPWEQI

In experiment [1], “WT BST2 expressed on HEK293T cells (from UniProt Q10589 1-161) (natural protein)” returned a percentage of NFAT-GFP positive ILT7+ reporter cells after co-culture with BST2-expressing HEK293T cells (no HIV) of 99%, a percentage of NFAT-GFP positive ILT7+ reporter cells after co-culture with BST2-expressing HEK293T cells producing WT HIV (Vpu present) of 74% and a percentage of NFAT-GFP positive ILT7+ reporter cells after co-culture with BST2-expressing HEK293T cells producing dU HIV (no Vpu) of 48%.

B1: recombinant GST-tagged ectodomain of BST2 (residues 47 to 159) (domain or fragment)
chain: KANSEACRDGLRAVMECRNVTHLLQQELTEAQKGFQDVEAQAATCNHTVMALMASLDAEKAQGQKKVEELEGEITTLNHKLQDASAEVERLRRENQVLSVRIADKKYYPSSQD
notes: BST2/Tetherin (CD317), human, extracellular domain, residues 47 to 159; a region common to the short and the long BST2 isoforms; Cloned into the pBADM30 expression vector as a His-tagged GST-N-terminus fusion protein; also called GST-BST2; BST2/Tetherin; not shown: GST, N-terminal, kept
On to B1, for which, in experiment [2], the Kd worked out at 2330 nM, the koff stood at 0.00308 s⁻¹ and the kon is 1250 M⁻¹ s⁻¹.
